# Results taken from CN108503707A (ZHEJIANG ACAD MEDICAL SCIENCES, dated 2018).
# T1: 弓形虫重组SAG1蛋白(表面膜抗原1) (Toxoplasma gondii, UniProt P13664 48-306, limits assumed)
# T1 construct: The vector tag (pET28a, Ni-NTA purified) is not described; In the BLI programme the loading step is called biotinylated antigen, but the sensor is APS; also called SAG1-m; SAG1重组抗原
# T1 sequence (looked up): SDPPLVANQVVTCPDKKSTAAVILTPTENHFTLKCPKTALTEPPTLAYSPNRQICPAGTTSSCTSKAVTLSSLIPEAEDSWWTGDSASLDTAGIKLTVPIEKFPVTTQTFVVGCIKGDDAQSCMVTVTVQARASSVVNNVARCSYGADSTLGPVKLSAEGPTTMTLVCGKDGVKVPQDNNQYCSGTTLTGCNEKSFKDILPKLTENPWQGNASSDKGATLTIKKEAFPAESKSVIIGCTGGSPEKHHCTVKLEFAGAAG
# Target: T1, 弓形虫重组SAG1蛋白(表面膜抗原1)
# Experiment: BLI (ForteBio Octet Red), SAG1 on APS sensor, nanobody at 6.25-100 nM
binder,measurement,value
"1号克隆株抗SAG1纳米抗体 (VHH, Tags or fusion parts from the vectors are not described; also called SAG1-1; 一号克隆株抗SAG1纳米抗体) VHH: HVQLVESGGGSVQAGGSLKLSCTASGYTSNNNCMAWYRQAPGKEPEGVAGIDSEGTTRYADSVKGRFTISKDNAKNTLYLQMNSLKPEDTGMYYCGAGPDRPARCQYDVWGQGTQVTVSS",Kd,1.66 nM
